Assay results from a protein production outcome set (Wang et al. 2014).

Assay: label from the status in PepcDB records

Sequence | protein production
MLRNKAFVVRLYPNAAQAERINRTLGCARFVYNHFLARRIESYRQDGKGMIYAATDKALTLLKREEGTAWLAEVDKFALQQSLRDLERAYQNFFRTAKKSGKKVGFPKFKKKRTGEAYRTQFTNNNIEIGEGKLKLPKLGWVKTRGQRDMQGKILNVTVRRIHEGHYEASVLCEVEIPYLPAAPKFAAGVDVGIKDFAIVTDGKGEFEHHANPKYYRSSLRRLRKAQKTLSRRKKGSARYGRAKTTLARIHKRVANKRQDFIHKLTTSLVREYEITCTEHLKPDNMRKNRRLALSVSDAGWGEFIRQLEYKATWYGRLVSKISPYFPSSQICHDCGFKNPAVKNLAVREWTCPNCGETHDRDENAALNIRREGLVAAGMSDTQNAHGDCIRPTSVGSGLRSENHATSVVLEHHHHHH | not failed
MNTSEHEREHDHVIEVTDLRRVYGGDFEAVRGITFSVERGELFALLGTNGAGKTSTVELLEGLAAPSGGRVRVLGHDPYEERAAVRPRTGVMLQEGGFPSELTVAETVRMWAGCTSGARPVGEALSLVGLERRPDVRVKQLSGGERRRLDLALALLGRPEVLFLDEPTTGLDAEGRQETWELVRELRDGGTTVLLTTHYLEEAEGLADRLAILHEGRIATAGTPAEVTAAQPSRISFDLPDGYFLGDLPPLADLGVSTHETTGRTVRLRTHELQRTATALLLWAQRAQVELRGLDVRSASLEEAFLRIAREAAGDRPGRPGRTDVSGTTASGKEAVALEHHHHHH | not failed
MNDNVLRYIKRVFNLITILGFVATIVGGIYLWRLGAFQNQAVLQQLIVAHRFLGPLIFLCMQILQVIVPIIPGGITMAAGVMIFGPVWGFVYNYFGIVAGSFLLFHFGKKYGSSLAKTFVKEKTYNKYMAWLDKGQKRFNIVFALLILSPIAPDDALVLIASQTKMSWKFFTWSILLCKPLPILLYSYLLIFGGDLLGHIL | failed
MLDQKPKVSVIIPTYNRAHLIPRAIKSVLNQTYLDIEIIIVDDSSTDNTEEIVKDFKDRRLKYIRHNINKGASAARNTGIRESRGKYIAFQDSDDEWFSNKLEKQIEAFADAPPEVGIVYSGFYRIEANRKLYLPSDQLSLKEGNIHNELLKGNFVGTPTVLMKKECFRNQRYFNESLPALEDWELWIELSKYYTFRYIKKPLLCSYSTPNSINLNENNMLKAHEIILLTHLDDFSKNKKNLSEHYYDIGTGLCSIGNFNNGKNYLIKSLKAYCLNFKTISVLFILLFGHNIYYKFRDLHRKIGHRT | failed
MARTITFDIPSQYKLVDLIGEGAYGTVCSAIHKPSGIKVAIKKIQPFSKKLFVTRTIREIKLLRYFHEHENIISILDKVRPVSIDKLNAVYLVEELMETDLQKVINNQNSGFSTLSDDHVQYFTYQILRALKSIHSAQVIHRDIKPSNLLLNSNCDLKVCDFGLARCLASSSDSRETLVGFMTEYVATRWYRAPEIMLTFQEYTTAMDIWSCGCILAEMVSGKPLFPGRDYHHQLWLILEVLGTPSFEDFNQIKSKRAKEYIANLPMRPPLPWETVWSKTDLNPDMIDLLDKMLQFNPDKRISAAEALRHPYLAMYHDPSDEPEYPPLNLDDEFWKLDNKIMRPEEEEEVPIEMLKDMLYDELMKTME | failed
MLEKIFNSLCSLVPKRYNMKEETNIVGIYNEHYLLSEKSNLVGALKLEGISYLSLDDKEIAQKFNERILALNEIVDGVHFKIVVKRRKIFMHHEYTQEEISNPFALEVINLWEQGVEDVYQNFYYLIFETKNDSIKGYLERFKKKITTNELENIQENNRQDEVKYQENYFIGFDNFNLLDKSKILYSIINNVKNMLSGLFVEKIDANSLLNFYAEYINGVPSEYTFARGRLHDGMINSDVHFKKDFFTHIHNGKEIFKRFISIKTYDIDKIVSTALSSVLHLSLEFDVILNIDNIPKAKAEKRIETKRKRANKSIRVEIDELNDMIKTDRVLMQEISLNILVHAKTKTDLDSACIEITNLLKQKGIVSTQESIGMLPMFFSFFPNRNRLNFRKRLLSSQNIASLIILEKQNCGFSRNSWGDRHLTIFRNQDKSPYLFNFHAYEAKRKNDMVSGHTIIFGGTGAGKTTLIEFLITNCFKYEDLSILALDRNNGMRVMTEFLDGQYNDSNDFYINPFSLKDTSANCTFLVSWLAFMLNIDEDTKDEKEKKTLSALSKTIRVCYNNITKQGGAIFKLRDFKDTLEIDYLDSKDILEKESSKDLYKHSTDCLDFAKKLSVIDMDALSSSKKDFNLAVLYLFYKVMNRAKLENKPFYIFIDEAKSVIENPIMLAKIKDTLAQARKLNGVLTLAFQDINQLDGVEGAKSIIENAAQVILYPTNNFEKLESYGILLSPIEKSFLNKTPLNARQVLVKNLLTQSSVFLEINLEKLNSTSKKFLRAYNSSASSVFELETLKKDNPKDYKEIYLTKE | failed
MMSDSPQKLGRNEWNAYMDKVKAKDREAFAFVFRFYAPKLKQFAYKHVGNEQVAMEMVQETMATVWQKAHLYDGKKSALSTWIYTIIRNLCFDLLRKQKGKELHIHSDDIWPSEYYPPDMVDHYSPEQDMLKEQVVKFLDILPKNQRDVLQAVYLEELPHQQVAELFDIPLGTVKSRLRLAVEKLRHSMHTEQL | failed
MKKIGIIGAGGIARAHATALSTIKNAELVGVYDINQQNAESFVKTFGGKSFENVDELIDASEGLIVASPNFCHKEHALQALGKHKHVLCEKPMAISLEEASIMKDTAERLSVRASMGFNYRYLSYVNILKSLIINNELGNILSIKVHFKKNSALRRKKFTWRDDANSKKTSGSLGDLGIHLIDMVWYLFESDFITESVRAKMNTNVKTKEDKQVLVDDYAEIYGQLRNKVFVNIITSKCSVPEDCGFSIEVVGHKKEFKYHTGNPHVYKLIDGLNVVDCPVPQSLLNDPPNEFYGWADSFRSELINWIASTQNDWVEIPSFSDGFRSQEVLEMFFEKDSNSQPLEHHHHHH | not failed
MSSVCFSVSREKLSGDIMLEKLNHYRQNLNFPLARPKNSSTQFRFDWVDNLRELQEVQRFRATQFSHQFGIHFDDGLDQDLYDFNCEHAVLREKWTGEIVAYTRLKLFQGHELSQSYSAQEFDIVDKLSYLPNVVEIGRTCVHPKFRSGKALSTLWLNLVPKVLWSMKAKYLMGCVSIHLDDNAARVYHTHQKIQRLSAEQTIDISSKCAYEPTHPQFSFPQDERIPKLFQMYLTMQSKLSKEAFYDEDFNCLDYFVFLEVNKIAKSFVMNKMVQR | failed
MNVTTTRFGEIAVEEAKIITLPDGMLGFSEKRFVLLTPQNITPFCWLQSVENPELAFVVVDTKECASDYAVKLTAEESEKLCVNDGDEVVLLAVVTMASDPFNITVNLQGPIALNPKRMLAKQIVLEGSRYTTKHPFFDQAARSKAPGKRNASGEVTAA | not failed
MSGPGSDPVFAALTRPQMVAGVTYSYAVFNLIVTMEAFLISKSFWALLIAPLVHAVGYLGCLNEPRFFDLWITKVSRCPNIRNRGFWQANSYRP | failed
MSNANPDTTAAEAHRRRTFAVIAHPDAGKSTLTEALALHAHIISEAGATHGKAGRKATVSDWMEMEKDRGISIASSALQFEYAPEGHAGEPFMINLVDTPGHADFSEDTYRVLMAVDAAVMLIDAAKGLEPQTLQLFRVCKARGLPIITVINKWDRVGRTPLELVDEIVKEIELQPTPLFWPVGEAGDFRGLARINNDGEVEEYIHFTRTAGGSTIAPEDFYTPEEAIEREGDVWENATEEAELLAADGAVHDQELFLNCTTSPLIFASAMLNFGVHQILDTLCQLAPSPAGRDADPKALEAATSAMDDHRDTTDDFSGVVFKVQAGMDKNHRDTLAFMRVVSGEFDRGMQVTHSQSGRSFSTKYALTVFGRTRSTVETAFPGDIVGLVNAGALAPGDTIFEGRKIQYPPMPKFAPEHFRILRAKSLGKYKQFRKALEQLDSEGVVQILKNDLRGDANPVMAAVGPMQFEVMQARMEVEYNVETVADPIPYSVARRTTAETAPELAKQRGVEIFTRTDGELIALFSDKWRLSFIEKEHPDFVLESLVAE | failed
MTRRVKTGIPGVDEILHGGIPERNVVLLSGGPGTGKTIFSQQFLWNGLKMGEPGIYVALEEHPVQVRQNMAQFGWDVKPYEEKGMFAMVDAFTAGIGKSKEYEKYIVHDLTDIREFIEVLRQAIRDINAKRVVVDSVTTLYINKPAMARSIILQLKRVLAGTGCTSIFVSQVSVGERGFGGPGVEHGVDGIIRLDLDEIDGELKRSLIVWKMRGTSHSMRRHPFDITDKGIIVYPDKVLKRGKVLEL | not failed
MALFIPTRLVSALALVGVSGLMLGCGSSGGGSNGTTASSAKAASSTPVAISSVAASSTAAVAGNIKLNQLGFLPESAKWAVVPAGVAASFTVINATTNAEVFSGNLSVAATWSASEESVKLADFSSVKTPGDYLLRVEGVNDSYPFTIANDVYSALTAASIKAFYFNRNSAELLATHAGMFARPPGHPDTQVLVHVSAASAARPAGTIISSPKGWYDAGDYNKYIVNSGIATYSLLAAYEHFPDIFNGQNLNIPESGDALPDLLNETLWNLEWMLSMQDPNDGGVYHKLTNKNFDGTVMPHQATSERYVVQKTTAAALDFAAVMATASRVVAQYESQLPGMSAKMLAAAESAWNWAVANPAITYKQPDDIKTGEYGDGNLADEFFWAAAELYITSKKDAYYTAMKPTETVATVPSWGDVRSLGWISLAHHRDNLTAVADKQLIANRIDGLAANLQSVWATSAYRVTMQKNDFVWGSNSVALGQAMMLVQGYRLNGKREYLDAAQAMLDYVLGRNATDMSFVTGYGDKSTLHPHHRPSEADGIVEPIPGFIAGGPQPGQQDKSGCSVSYPSNIAAKSYLDNWCSYASNEIAINWNAPLVYVSAAIQALTPK | failed
MNKKKFENLPKWNNFALFNFLAKDKENSLEVMEASRGFAVPGIVATNYETAEEAANVVKELQTTAPVISVGLGGGGDWQNWRDVLHIARLAPNSHINQPIETAGLTNDLLPETYTNALVRPTGKVGIVKLSSGDEITAEEAVDYCLSANIPSIKFMSIEGTKYLDELVYLTKVAAEKGIYGIEPAGGIGAENILEITTAIKTTGIPFFMPHIFGKTIDKATGRTKPEEIEKIFAALEGK | failed
MIKTHYAKLALSAFAVSILASCANLGMTGVADGNNSEQTYLGQINYQDQTITKASAKKLNREIDLQRASQLTLWAMPMVGMYQSYNSTIALFDLQEGDAPIIGLHEGYDGVYPFLTANVTTPYTISLVDLSETGPYVVNIPAGSIFGVANNAWQEPIKEIGSGNKETLLFVGPGQEYPKDFDGEVIQSDTNQILYFYRVLGVGAEAEKLKTAVTAYKLSDVANPPQVKFVIYKPKASDADVTIATQPRGMAYWEVVNQYIQNEPMADRDRFFYAWLKDLGIEKGKAFNPTPYQKEILLEGVNTGMAMAQSLAFNKTKKKFSSSLYGSDSGWEGVLAGMDPKIDLDTYSMINERTAYTYEAVTTSAGMIVENPGHGSAYIGSYYDADGNALMGGKNYTLHIEPNPPAANFWSITVYDIKNRLIIRNEIKRSDLSSRSESLVMNSDGSVDLYFGPEAPEGKEGNWIQSNDGESYFMYLRLYGPEQEYFDQTYPMNKIDKTK | failed
MKSNLFMKRKLEIGLSLLIGTSVFGGCNNDLAPIRQSQTFPPNLNAPTVFESFSPDSGGVKTQLIIRGQNFGTDTAYLKVTVNNKRAAIVGVADDVIYAIVPARADTGYVRLFVGKDDNVEEYASQTKFIYQFKRNVTTLMGRQGQSGRDDGPYAECKLQRPWFALADKDGALFFIDEGRGQNKNGALRRAQEGWVETLVQNSSGPFQSPTCLAFNPKQDTLYISNMSYGSDIKTSFNILYVTREGGFMDVKGLCKFEKAETQGLAVHPQTGEIFFCNKSGGYIYRFNGPDYEDYEPLFQINRADKIDTRMVFNPEGTALFVVVCNRHCIYKVPYNALTHTFGEPELFAGGWDESGYVNGSGVTARFDNPRQPAFDQDGNMFVPEYGRHTIRKITPTGEVSLYAGLPGQAGFTDGLPEKARFNKPECVTVYLDNSLYVADRDNHLIRRVTVE | failed
MTLVTALIVLLVVLGVFFTLVAAVGVLRLPDVYTRSHAATKADTLGAGFAIAAVGLYFGTAGELVRAGLLLVFIYVTNPTAAHAITRAAYSQDVDVWTVDDNDTGTDTASAADGGDSQ | failed
